Measurements reported in patent publication US20240182536A1 (MURAL ONCOLOGY, published 2024).
Read-outs that look alike come from different tables or passages of the source.

Legend:
[1] = target: T1, human IL-18 binding protein (IL-18BP) (human, UniProt O95998 31-194); assay: cell-based or functional assay
T1 sequence (looked up): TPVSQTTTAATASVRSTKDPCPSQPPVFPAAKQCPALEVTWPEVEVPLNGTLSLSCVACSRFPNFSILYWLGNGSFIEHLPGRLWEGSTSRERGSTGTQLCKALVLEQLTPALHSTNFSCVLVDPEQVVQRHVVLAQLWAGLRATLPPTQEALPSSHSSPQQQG

[2] = target: T2, IL-18 receptors on HEK-Blue IL-18 reporter cells (InvivoGen) (UniProt Q13478 19-541; O95256 20-599); assay: cell-based or functional assay
T2 sequence (looked up) 1: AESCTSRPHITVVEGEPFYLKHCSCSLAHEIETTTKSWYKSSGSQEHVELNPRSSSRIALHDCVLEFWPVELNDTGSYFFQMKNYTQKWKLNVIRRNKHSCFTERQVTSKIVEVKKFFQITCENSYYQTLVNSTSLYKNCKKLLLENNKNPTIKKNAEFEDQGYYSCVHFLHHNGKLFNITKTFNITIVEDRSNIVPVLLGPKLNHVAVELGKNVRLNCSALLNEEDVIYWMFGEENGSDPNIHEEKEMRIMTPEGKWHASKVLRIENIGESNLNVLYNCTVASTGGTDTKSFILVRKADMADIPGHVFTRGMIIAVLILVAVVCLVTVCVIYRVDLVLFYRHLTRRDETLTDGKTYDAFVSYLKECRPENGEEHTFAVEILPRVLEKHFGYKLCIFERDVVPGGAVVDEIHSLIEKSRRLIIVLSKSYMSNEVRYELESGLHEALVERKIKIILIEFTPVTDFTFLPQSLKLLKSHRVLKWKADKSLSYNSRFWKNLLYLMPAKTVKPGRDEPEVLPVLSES
T2 sequence (looked up) 2: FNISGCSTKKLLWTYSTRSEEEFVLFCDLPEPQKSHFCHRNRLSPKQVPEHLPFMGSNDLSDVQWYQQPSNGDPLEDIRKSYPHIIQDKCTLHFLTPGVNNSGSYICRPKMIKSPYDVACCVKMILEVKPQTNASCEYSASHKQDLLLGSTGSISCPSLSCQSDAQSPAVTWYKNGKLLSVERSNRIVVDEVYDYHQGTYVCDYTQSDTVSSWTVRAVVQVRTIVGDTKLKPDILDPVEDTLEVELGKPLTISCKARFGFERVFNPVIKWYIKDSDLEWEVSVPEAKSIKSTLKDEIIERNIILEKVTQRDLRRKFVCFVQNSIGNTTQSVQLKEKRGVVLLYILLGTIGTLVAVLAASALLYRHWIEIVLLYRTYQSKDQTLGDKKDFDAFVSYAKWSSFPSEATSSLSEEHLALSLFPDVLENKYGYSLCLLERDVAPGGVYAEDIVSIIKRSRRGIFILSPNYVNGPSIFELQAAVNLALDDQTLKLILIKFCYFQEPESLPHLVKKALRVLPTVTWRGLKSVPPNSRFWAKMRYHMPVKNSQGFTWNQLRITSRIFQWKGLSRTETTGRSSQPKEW

[3] = target: T1, human IL-18 binding protein (IL-18BP); assay: cell-based or functional assay; remark: listed apart in the source
[4] = target: T2, IL-18 receptors on HEK-Blue IL-18 …; assay: cell-based or functional assay; remark: listed apart in the source
[5] = target: T3, human IL-18 receptor alpha (IL-18Rα) (human, UniProt Q13478 19-329, limits assumed); assay: Octet BLI
T3 construct: also called hu IL-18Ra; IL-18R alpha
T3 sequence (looked up): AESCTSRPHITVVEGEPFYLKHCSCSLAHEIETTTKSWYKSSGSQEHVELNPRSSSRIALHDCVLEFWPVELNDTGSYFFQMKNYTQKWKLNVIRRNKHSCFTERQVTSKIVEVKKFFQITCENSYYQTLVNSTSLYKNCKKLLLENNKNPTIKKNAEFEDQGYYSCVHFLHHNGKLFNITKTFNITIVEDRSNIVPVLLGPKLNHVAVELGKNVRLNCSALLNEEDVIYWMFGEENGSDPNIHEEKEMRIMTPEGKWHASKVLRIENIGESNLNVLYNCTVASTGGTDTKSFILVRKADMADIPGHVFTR
Procedure: (§1) Octet 96red instrument was used to determine affinities of IL18 proteins to BP or receptors. 5-10 ug/ml analyte proteins were used for loading on Sartorius tips (AHC or SA). […] 120-180 s loading, 200 s association and 800 s dissociation were used for kinetics. 3-7 data points were used to calculate affinities.

[6] = target: T4, human IL-18R alpha/beta pair (IL-18Rab) (human, UniProt Q13478 19-329; O95256 20-356); assay: Octet BLI
T4 construct: also called hu IL-18Rab
T4 sequence (looked up) 1: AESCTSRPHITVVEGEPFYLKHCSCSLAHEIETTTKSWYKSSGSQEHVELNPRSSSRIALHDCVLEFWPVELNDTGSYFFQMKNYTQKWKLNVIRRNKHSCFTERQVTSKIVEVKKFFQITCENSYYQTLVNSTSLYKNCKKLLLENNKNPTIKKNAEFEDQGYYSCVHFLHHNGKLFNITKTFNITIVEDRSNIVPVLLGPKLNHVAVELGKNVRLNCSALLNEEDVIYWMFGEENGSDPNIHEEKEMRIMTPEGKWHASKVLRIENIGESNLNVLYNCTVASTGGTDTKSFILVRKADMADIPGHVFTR
T4 sequence (looked up) 2: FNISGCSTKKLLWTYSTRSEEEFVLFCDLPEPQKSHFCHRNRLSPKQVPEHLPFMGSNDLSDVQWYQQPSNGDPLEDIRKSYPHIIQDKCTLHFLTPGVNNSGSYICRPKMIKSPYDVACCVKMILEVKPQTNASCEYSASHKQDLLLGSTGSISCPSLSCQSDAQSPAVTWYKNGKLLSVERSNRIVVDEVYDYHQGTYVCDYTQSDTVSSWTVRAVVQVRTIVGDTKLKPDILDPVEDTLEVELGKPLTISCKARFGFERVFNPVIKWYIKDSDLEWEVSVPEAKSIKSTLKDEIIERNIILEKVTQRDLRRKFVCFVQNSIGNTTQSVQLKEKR
Procedure: as §1

[7] = target: T1, human IL-18 binding protein (IL-18BP); assay: Octet BLI
Procedure: as §1

[8] = target: T3, human IL-18 receptor alpha (IL-18Rα); assay: Octet BLI; remark: listed apart in the source
[9] = target: T4, human IL-18R alpha/beta pair (IL-18Rab); assay: Octet BLI; remark: listed apart in the source
[10] = target: T1, human IL-18 binding protein (IL-18BP); assay: Octet BLI; remark: listed apart in the source
[11] = target: T1, human IL-18 binding protein (IL-18BP); assay: cell-based or functional assay; remark: listed apart in the source
[12] = target: T2, IL-18 receptors on HEK-Blue IL-18 …; assay: cell-based or functional assay; remark: listed apart in the source
[13] = target: T5, IL-18 receptor (IL-18Rα and IL-18Rβ) (UniProt Q13478 19-541; O95256 20-599, limits assumed); assay: cell-based or functional assay
T5 sequence (looked up) 1: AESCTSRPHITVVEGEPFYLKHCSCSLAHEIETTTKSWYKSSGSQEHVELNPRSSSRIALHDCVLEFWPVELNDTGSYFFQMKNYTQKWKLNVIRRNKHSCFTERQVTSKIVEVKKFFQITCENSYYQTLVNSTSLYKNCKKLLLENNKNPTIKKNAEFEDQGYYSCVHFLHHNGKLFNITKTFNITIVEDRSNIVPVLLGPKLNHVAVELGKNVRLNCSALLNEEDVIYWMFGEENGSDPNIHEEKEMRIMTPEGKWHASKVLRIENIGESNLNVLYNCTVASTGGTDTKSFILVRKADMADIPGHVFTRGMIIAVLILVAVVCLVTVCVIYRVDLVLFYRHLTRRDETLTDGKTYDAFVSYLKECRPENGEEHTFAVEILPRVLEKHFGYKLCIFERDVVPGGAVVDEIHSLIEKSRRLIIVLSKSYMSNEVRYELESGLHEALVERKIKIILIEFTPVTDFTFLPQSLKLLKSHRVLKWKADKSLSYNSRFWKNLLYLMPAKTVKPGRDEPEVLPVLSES
T5 sequence (looked up) 2: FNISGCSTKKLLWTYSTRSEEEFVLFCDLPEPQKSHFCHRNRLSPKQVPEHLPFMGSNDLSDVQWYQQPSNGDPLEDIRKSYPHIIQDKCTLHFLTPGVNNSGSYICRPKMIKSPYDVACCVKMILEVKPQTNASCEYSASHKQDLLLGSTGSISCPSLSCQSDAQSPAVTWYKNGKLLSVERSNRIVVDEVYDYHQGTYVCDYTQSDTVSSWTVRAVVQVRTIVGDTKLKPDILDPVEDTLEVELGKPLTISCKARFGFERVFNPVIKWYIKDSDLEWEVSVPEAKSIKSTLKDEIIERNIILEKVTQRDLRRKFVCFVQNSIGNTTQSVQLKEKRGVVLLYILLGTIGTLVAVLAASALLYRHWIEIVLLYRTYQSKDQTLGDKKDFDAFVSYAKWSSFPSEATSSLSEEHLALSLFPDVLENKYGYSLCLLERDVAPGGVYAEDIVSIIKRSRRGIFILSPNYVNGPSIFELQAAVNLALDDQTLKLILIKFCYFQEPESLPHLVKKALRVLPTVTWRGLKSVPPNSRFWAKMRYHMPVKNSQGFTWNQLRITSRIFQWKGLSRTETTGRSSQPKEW

[14] = target: T1, human IL-18 binding protein (IL-18BP); assay: cell-based or functional assay; remark: listed apart in the source

Row | Binder | Fold Change (BP/NO BP), 50 nM BP [1] | Fold Change (BP/NO BP), 300 nM BP [1] | HEK-Blue EC50 pM, +50 nM BP [1] | HEK-blue EC50 (pM) + 300 nM BP [1] | HEK-Blue EC50 pM, NO BP (50 nM BP run) [2] | HEK-Blue EC50 pM, NO BP (300 nM BP run) [2] | HEK-Blue Activity Assay Ec50 (pM), +300 nM hu IL-18BP [3] | HEK-Blue Activity Assay Ec50 (pM), -hu IL-18BP [4] | Kd [5] | Kd [6] | Kd [7] | Kd [8] | Kd [9] | Kd [10] | HEK-Blue Activity Assay Ec50 (pM), +50 nM hu IL-18BP [11] | HEK-Blue Activity Assay Ec50 (pM), -hu IL-18BP [12] | EC50 pM, IFN gamma expression in PBMCs, no BP [13] | EC50 pM, IFN gamma expression in PBMCs, + 300 nM BP [14]
1 | IL-18 variant G3T, M60K, D157E (ligand) YFTKLESKLSVIRNLNDQVLFIDQGNRPLFEDMTDSDMRDNAPRTIFIISMYKDSQPRGKAVTISVKSEKISTLSSENKIISFKEMNPPDNIKDTKSDIIFFQRSVPGHDNKMQFESSSYEGYFLASEKERDLFKLILKKEDELGDRSIMFTVQNEE | 1.05 fold | 3.69 fold | 0.65 pM | 2.77 pM | 0.62 pM | 0.75 pM | 2.77 pM | 0.75 pM | 693 nM | 0.1 nM | 686 nM | 693 nM | 0.1 nM | 686 nM | 0.65 pM | 0.62 pM | 127 pM | 323 pM
2 | IL-18 variant G3V, M60K (ligand) YFVKLESKLSVIRNLNDQVLFIDQGNRPLFEDMTDSDMRDNAPRTIFIISMYKDSQPRGKAVTISVKSEKISTLSSENKIISFKEMNPPDNIKDTKSDIIFFQRSVPGHDNKMQFESSSYEGYFLASEKERDLFKLILKKEDELGDRSIMFTVQNED | 1.25 fold | 3.25 fold | 0.16 pM | 0.59 pM | 0.12 pM | 0.18 pM | 0.59 pM | 0.18 pM | 41 nM | 0.07 nM | 91 nM | 41 nM | 0.07 nM | 91 nM | 0.16 pM | 0.12 pM | 14.9 pM | 14.4 pM
